According to article PMC11046469, “Leveraging a Phage-Encoded Noncanonical Amino Acid: A Novel Pathway to Potent and Selective Epigenetic Reader Protein Inhibitors” (ACS Central Science, 2024):
Where a SMILES comes first, the peptide text is derived from it. The star is where a group is joined. Butyryl = CCCC(=O)*

T1: ENL YEATS domain (His-ENL YEATS) (Homo sapiens, UniProt Q03111)
T1 construct: (aa 1−148) was cloned in pET19b; made in house; host or cells: E. coli BL21(DE3pLysS)
T1 sequence (Q03111 1-148): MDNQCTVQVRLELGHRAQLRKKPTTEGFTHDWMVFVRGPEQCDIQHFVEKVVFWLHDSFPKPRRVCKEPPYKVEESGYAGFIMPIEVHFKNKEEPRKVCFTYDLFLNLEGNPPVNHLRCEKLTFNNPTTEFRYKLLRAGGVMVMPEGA

T2: ENL YEATS domain (His-ENL) (Homo sapiens, UniProt Q03111)
T2 construct: (aa 1−148) was cloned in pET19b; made in house; host or cells: E. coli BL21(DE3pLysS)
T2 sequence (Q03111 1-148): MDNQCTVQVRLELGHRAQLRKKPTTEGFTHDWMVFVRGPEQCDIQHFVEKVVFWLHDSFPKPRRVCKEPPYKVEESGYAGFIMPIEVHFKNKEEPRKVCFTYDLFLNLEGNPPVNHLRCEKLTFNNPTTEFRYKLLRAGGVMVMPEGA

T3: ENL YEATS domain (AviSUMO-ENL YEATS) (Homo sapiens, UniProt Q03111)
T3 construct: encoding ENL YEATS (aa 1−148) was cloned in pET28a-; made in house; host or cells: E. coli BL21(DE3pLysS), co-expressed with BirA (pBirAcm)
T3 sequence (Q03111 1-148): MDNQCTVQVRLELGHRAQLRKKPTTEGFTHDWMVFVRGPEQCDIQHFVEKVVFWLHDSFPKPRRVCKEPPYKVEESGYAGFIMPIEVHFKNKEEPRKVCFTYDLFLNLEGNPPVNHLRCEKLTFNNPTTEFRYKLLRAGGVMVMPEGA

T4: 6xHis-tagged ENL YEATS domain, Q03111
T4 chain: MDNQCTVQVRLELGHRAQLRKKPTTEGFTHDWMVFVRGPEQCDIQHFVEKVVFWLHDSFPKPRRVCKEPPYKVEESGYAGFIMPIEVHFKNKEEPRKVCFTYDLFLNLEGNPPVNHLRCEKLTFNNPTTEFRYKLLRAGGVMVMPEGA


Legend:
[1] = target: T1, ENL YEATS domain (His-ENL YEATS); assay: AlphaScreen inhibition of ENL YEATS binding to biotinylated H3K27cr peptide; conditions: mean ± SD, n = 3
Description: (§1) To test the inhibition potency of the two selected peptides for the ENL YEATS domain, ENL-S1 and ENL-S2 were chemically synthesized through solid-phase peptide synthesis (SPPS) and evaluated by an AlphaScreen assay. In this assay, a biotinylated H3K27cr peptide and a 6xHis-tagged ENL YEATS domain (His-ENL YEATS) were immobilized on PerkinElmer streptavidin donor and nickel-chelating (Ni-NTA) acceptor beads, respectively. The use of a His-ENL YEATS instead of the original AviSUMO-ENL YEATS construct in the assay prevents potential false positive results derived from ligands which bind to the SUMO protein but not to the ENL YEATS domain. […] We then assessed the binding affinity of two ligands for the ENL YEATS domain using biolayer interferometry (BLI). Briefly, His-ENL was immobilized onto Ni-NTA functionalized biosensors to measure the binding kinetics of target peptides at different concentrations. […] As a small peptide directly selected from a phage display library, this level of high potency was unexpected. […] However, shorter-than-10-mer linear peptides with nanomolar binding potency have rarely been directly selected from phage display libraries. One example was S2P03, a 7-mer peptide that has a KD value as 49 ± 9 nM to bind to SIRT2.[10] This peptide contained BuK and was identified also from a BuK-containing phage display library using the active site-directed ligand selection technique. Taken together, the two examples confirmed that utilizing phage display libraries incorporated with a ncAA serving as a ligand for a protein target for active site-directed ligand selection is a successful method for identifying ultrahigh potency ligands for epigenetic proteins including both enzymes and readers. For ENL-S1 and ENL-S2, their determined kon and koff values were 6.23 ± 0.07 × 10^4 M^–1 s^–1, […] and […], 5.54 ± 0.02 × 10^–3 s^–1, respectively. Compared to ENL-S2, ENL-S1 has faster binding to the ENL YEATS domain and slower release from it, indicating its potential long-term action on the ENL YEATS inhibition. […]
Characterization of Selected Peptide Inhibitors
AlphaScreen Assay to Validate ENL Inhibitors:
His-ENL, His-AF9 (aa 1-149, EpiCypher), and biotinylated H3K27cr (aa 15-33, EpiCypher) were used to assay the synthesized inhibitors. The lyophilized peptide inhibitors were dissolved in DMF […]
and serially diluted into assay buffer (50 mM HEPES, 100 mM NaCl, 0.1% BSA, 0.05% CHAPS, pH 7.4) and incubated in the presence of 120 nM His-tagged protein at 37 °C for 30 minutes. 12.5 μL of biotinylated H3K27cr (400 nM) was aliquoted into a light gray 384-well Alphaplate (Perkin Elmer) and incubated at 37 °C. 12.5 μL of the inhibitor/protein solution was added to the H3K27cr solution, and incubated for 30 minutes at 37 °C. 25 μL of AlphaScreen histidine (nickel chelate) detection beads (Perkin Elmer) was added at 20 μg/mL each bead (streptavidin donor beads and nickel chelate acceptor beads), and the plate was incubated at 37 °C for 30 minutes. The plate was cooled to room temperature for 10 minutes, and then the beads were excited at 680 nm and the luminescence at 615 nm was read. […]
Biolayer […]
interferometry assays were performed in 96 well plates (GreinerBio-One, polypropylene, flat-bottom) using an Octet Red96 System (Sartorius). Wells were filled with 200 μL of assay buffer, blocking buffer (assay buffer + 0.1% BSA), protein solution, peptide solution, regeneration solution, and reload solution. For immobilization, His-tagged proteins were immobilized onto Ni-NTA sensors at 20 for 600 s. Sensors were then dipped into blocking buffer for 180 s, assay […] buffer for 300 s, peptide solution for 300 s, and back to assay buffer for 300 s. If multiple samples were tested, Ni-NTA sensors can be reconditioned in regeneration (10 mM glycine, pH 1.7) solution followed by reload solution (10 mM NiCl2) for 30 and 60 s, respectively. Measurements […]

[2] = target: T2, ENL YEATS domain (His-ENL); assay: Biolayer interferometry (BLI) binding to ENL YEATS; conditions: BLI
Description: as §1
Biolayer Interferometry to Validate ENL Ligands:
His-ENL, His-AF9 (aa 1-149, EpiCypher), His-GAS41 (aa 15-160, EpiCypher), and YEATS2-His (aa 200-345, EpiCypher) were reconstituted in water and diluted into assay buffer (20mM Tris, 300 mM NaCl, pH 7.9) for immobilization onto Octet Ni-NTA biosensors (Sartorius). Lyophilized peptides were dissolved in DMF and diluted to designated concentrations in assay buffer. Biolayer interferometry assays were performed in 96 well plates (GreinerBio-One, polypropylene, flat-bottom) using an Octet Red96 System (Sartorius). Wells were filled with 200 μL of assay buffer, blocking buffer (assay buffer + 0.1% BSA), protein solution, peptide solution, regeneration solution, and reload solution. For immobilization, His-tagged proteins were immobilized onto Ni-NTA sensors at 20 for 600 s. Sensors were then dipped into blocking buffer for 180 s, assay […] buffer for 300 s, peptide solution for 300 s, and back to assay buffer for 300 s. If multiple samples were tested, Ni-NTA sensors can be reconditioned in regeneration (10 mM glycine, pH 1.7) solution followed by reload solution (10 mM NiCl2) for 30 and 60 s, respectively. Measurements were carried out at 30 °C. Data were analyzed within the ForteBio Data Analysis software. Data were processed by double subtracting ligand only and protein only reference wells and aligning the data to the beginning of the association. Then, global kinetic fit was performed for all sensogram curves with a 1:1 model. Steady state KD values were reported.
AlphaScreen Assay with Biotinylated-ENL-S1:
The AlphaScreen assay was carried out in 384-well plates. Manual assay setup was performed in a 40 uL reaction buffer (50 mM HEPES pH 7.4, 100 mM NaCl, 0.1% bovine serum albumin, and 0.05% CHAPS). 10 µL of varying concentrations of His-ENL YEATS (0-300 nM) and 10 µL of […]

[3] = target: T3, ENL YEATS domain (AviSUMO-ENL YEATS); assay: Phage panning of BuK-containing 7-mer library against AviSUMO-ENL YEATS with Illumina NGS abundance; conditions: TAG = amber codon (BuK); for n (number of NGS reads of the unique amino acid sequence) / percent (share of sequence reads): sheet ENLR3: round 3 of panning against ENL YEATS, 7-mer library positions V1-V7; for n (number of NGS reads of the 7-mer sequence V1-V7) / percent (share of NGS reads of the 7-mer sequence V1-V7): sheet ENLR3: round 3 of selection against ENL YEATS
Procedure, shortened: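 Phage displaying BuK-containing amber-obligate 7-mer peptides, made with 5 mM BuK, was panned against biotinylated AviSUMO-ENL YEATS on streptavidin beads with washes of rising stringency. Rounds 1 and 3 were sequenced by Illumina NGS, and sequences with mismatches were filtered out before copy-number abundance was counted.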

[4] = target: T4, 6xHis-tagged ENL YEATS domain, Q03111; assay: AlphaScreen; conditions: chain shown with the change; n = 3; parent: 62.6 nM

Molecule	n (number of NGS reads of the unique amino acid sequence) [3]	percent (share of sequence reads) [3] [%]	n (number of NGS reads of the 7-mer sequence V1-V7) [3]	percent (share of NGS reads of the 7-mer sequence V1-V7) [3] [%]	other results
CCCC(=O)NCCCC[C@H](NC(=O)[C@H](Cc1ccc(O)cc1)NC(=O)[C@H](C)NC(=O)[C@H](Cc1ccc(O)cc1)NC(=O)[C@@H](NC(=O)[C@H](CC(=O)O)NC(=O)[C@@H](N)Cc1ccc(O)cc1)C(C)C)C(N)=O [ENL-S1A5] (H-YDVYAYK(Butyryl)-NH2; N-terminus assumed)	–	–	–	–	IC50 [1]: > 2 µM
CCCC(=O)NCCCC[C@H](NC(=O)[C@H](CCC(=O)O)NC(=O)[C@@H](NC(=O)[C@@H](NC(=O)[C@H](Cc1c[nH]c2ccccc12)NC(=O)[C@@H](N)Cc1c[nH]c2ccccc12)[C@@H](C)CC)[C@@H](C)CC)C(=O)NCC(N)=O [ENL-S2] (H-WWIIEK(Butyryl)G-NH2; N-terminus assumed)	–	–	–	–	IC50 [1]: 1.22 µM; Kd [2]: 0.881 ± 0.009 µM; koff [2]: 0.00554 s⁻¹
CCCC(=O)NCCCC[C@H](NC(=O)[C@H](Cc1ccc(O)cc1)NC(=O)[C@H](CS)NC(=O)[C@H](Cc1ccc(O)cc1)NC(=O)[C@H](C)NC(=O)[C@H](CC(=O)O)NC(=O)[C@@H](N)Cc1ccc(O)cc1)C(N)=O [ENLS1A3] (H-YDAYCYK(Butyryl)-NH2; N-terminus assumed)	–	–	–	–	IC50 [1]: > 5 µM
YDVYWYTAG	3	0.002732	–	–	–
YDVYYYTAG	7	0.006374	–	–	–
YEVYCYTAG	2	0.001821	–	–	–
YGTAGHDFF	–	–	1	0.0009106	–
YGVYCYTAG	13	0.01184	–	–	–
YHVYCYTAG	2	0.001821	–	–	–
YLDDTAGLH	–	–	1	0.0009106	–
YLTLFTAGG	–	–	1	0.0009106	–
YLYLVPC	–	–	1	0.0009106	–
YLYTAGAPC	–	–	1	0.0009106	–
YLYTAGFPC	5	0.004553	–	–	–
YLYTAGVHC	–	–	1	0.0009106	–
YLYTAGVPC	1006	0.9161	–	–	–

Molecule	n (number of NGS reads of the unique amino acid sequence) [3]	percent (share of sequence reads) [3] [%]	n (number of NGS reads of the 7-mer sequence V1-V7) [3]	percent (share of NGS reads of the 7-mer sequence V1-V7) [3] [%]	other results
YLYTAGVPF	–	–	1	0.0009106	–
YLYVTAGAC	–	–	1	0.0009106	–
YLYYVPC	6	0.005464	–	–	–
YNVYCYTAG	10	0.009106	–	–	–
YPCVCFTAG	–	–	1	0.0009106	–
YRWVFSF	–	–	1	0.0009106	–
YVCPWTAGG	–	–	1	0.0009106	–
YVGPLTAGG	–	–	1	0.0009106	–
YVGPWTAGG	41	0.03734	–	–	–
YVVYCYTAG	4	0.003642	–	–	–
YWTAGCARV	–	–	1	0.0009106	–
YYVYCYTAG	38	0.0346	–	–	–
YDAYCYK [ENL-S1 V3A]	–	–	–	–	IC50 [4]: > 5 µM
YAVYCYK [ENL-S1 D2A]	–	–	–	–	IC50 [4]: 0.0522 µM
YDVACYK [ENL-S1 Y4A]	–	–	–	–	IC50 [4]: 0.718 µM
YDVYAYK [ENL-S1 C5A]	–	–	–	–	IC50 [4]: > 2 µM
